Data from patent publication US20080160023.

What was measured:
[1] = biological target: T1, recombinant mouse Scp2 with C-terminal myc-6xHis tag, P32020
T1 chain: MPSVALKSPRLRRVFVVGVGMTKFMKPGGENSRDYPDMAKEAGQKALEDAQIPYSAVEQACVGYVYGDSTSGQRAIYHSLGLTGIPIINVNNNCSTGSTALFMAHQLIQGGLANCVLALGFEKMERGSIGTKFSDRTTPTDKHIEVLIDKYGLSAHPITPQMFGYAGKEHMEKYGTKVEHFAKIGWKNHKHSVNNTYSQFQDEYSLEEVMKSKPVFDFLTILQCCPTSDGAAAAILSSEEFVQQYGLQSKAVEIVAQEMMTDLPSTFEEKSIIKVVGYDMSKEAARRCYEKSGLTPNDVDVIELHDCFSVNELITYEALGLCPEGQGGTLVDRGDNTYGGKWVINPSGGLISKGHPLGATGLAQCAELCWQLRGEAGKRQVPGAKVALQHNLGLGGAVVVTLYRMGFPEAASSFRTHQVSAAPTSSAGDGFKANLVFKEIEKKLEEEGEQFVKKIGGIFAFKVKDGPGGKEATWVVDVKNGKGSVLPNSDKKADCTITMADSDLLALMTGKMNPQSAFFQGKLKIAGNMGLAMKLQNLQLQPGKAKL

[2] = biological target: T2, recombinant rat Acaa1 with 6xHis N-terminal tag, P07871
T2 chain: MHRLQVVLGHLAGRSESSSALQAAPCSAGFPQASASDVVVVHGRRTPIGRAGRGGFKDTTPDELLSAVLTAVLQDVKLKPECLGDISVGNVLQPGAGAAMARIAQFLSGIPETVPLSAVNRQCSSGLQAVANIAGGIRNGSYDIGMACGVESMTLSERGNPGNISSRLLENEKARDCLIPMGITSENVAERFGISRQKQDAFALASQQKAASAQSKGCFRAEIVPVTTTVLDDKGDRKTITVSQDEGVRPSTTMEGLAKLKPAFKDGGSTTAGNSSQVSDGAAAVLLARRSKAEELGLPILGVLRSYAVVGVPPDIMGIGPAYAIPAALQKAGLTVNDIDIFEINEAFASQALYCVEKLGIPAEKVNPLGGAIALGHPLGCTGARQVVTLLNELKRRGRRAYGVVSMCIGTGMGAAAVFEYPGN

[3] = biological target: T3, recombinant rat Acox1 with C-terminal myc-6xHis tag, P07872
T3 chain: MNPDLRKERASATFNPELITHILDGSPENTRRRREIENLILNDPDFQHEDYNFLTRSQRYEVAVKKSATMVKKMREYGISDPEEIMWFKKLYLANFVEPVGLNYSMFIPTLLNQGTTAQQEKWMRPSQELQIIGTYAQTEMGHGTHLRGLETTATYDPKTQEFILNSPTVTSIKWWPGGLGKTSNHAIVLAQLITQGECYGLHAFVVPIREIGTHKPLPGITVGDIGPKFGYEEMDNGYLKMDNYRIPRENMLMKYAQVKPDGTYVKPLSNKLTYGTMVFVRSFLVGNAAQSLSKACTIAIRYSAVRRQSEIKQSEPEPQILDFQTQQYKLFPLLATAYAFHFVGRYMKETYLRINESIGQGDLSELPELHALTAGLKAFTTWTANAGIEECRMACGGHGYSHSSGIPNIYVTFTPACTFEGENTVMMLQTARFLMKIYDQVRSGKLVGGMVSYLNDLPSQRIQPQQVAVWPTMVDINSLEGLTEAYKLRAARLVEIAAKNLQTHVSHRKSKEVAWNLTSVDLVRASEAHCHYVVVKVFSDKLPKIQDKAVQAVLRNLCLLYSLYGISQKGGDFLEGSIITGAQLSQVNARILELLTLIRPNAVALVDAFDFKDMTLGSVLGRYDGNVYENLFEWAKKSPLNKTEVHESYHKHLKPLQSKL

B1: recombinant Tysnd1-FLAG purified from COS-7 cells (protein)
chain 1: MGRQWGPSMRVAEQAGCVVSASRAGQPDAGSWSCSGVILSRNPGLVLCHGGIFTPFLRTGSAALTQTGTAFLPGDSCSDDLRLHVQWGPTAASPAGRADQELPGLCTPQCASLGLEPGAPSRARARPLQPPRPAQLLLLLSCPAFRSHFARLFGADAVDQWHFVSSAPDDAVSEEEEEDQLRALGWFALLRVQRGAAAEERRGPVVTVAPLGAVVKGAPLLACGSPFGAFCPDIFLNTLSRGVLSNAAGPLLLTDARCLPGTEGGGVFAARPAGALVALVAAPLCWKAREWVGLTLLCAAAPLLQVARWALARLHPGSASLSVLLPPPDVSTPRGLPLRDLGPPWAAAAVLVECGTVWGSGVVVAPRLVVTCRHVAPREAARVLVHSATPKNVAIWGQVVFATQETSPYDIAVVSLEEELNGVPTPVPAGHFHEGEPVSVVGFGVFGQACGPSVTSGILSAVVRVDGSPVMLQTTCAVHGGSSGGPLFSSGSGDLLGIVASNTRDNNTGATYPHLNFSIPITVLQPALKQYSQTGDLGGLRELDHTTEPVRVVWRLQRPLSE
chain 2: VPRSKL
B1 was tested, and the “in vitro cleavage (Western blot with anti-cMyc antibody)” value [1] was “Scp2 was processed to generate C-terminal fragment of 16 kDa”, the “in vitro cleavage (Amido Black staining of the membrane)” value [2] was “Incubation of Tysnd1 with Acaa1 resulted in the removal of 3 kDa PTS2-containing N-terminal propeptide to produce mature Acaa1” and the “in vitro cleavage (Western blot with anti-cMyc antibody)” value [3] was “Acox1 was cleaved to produce C-terminal fragment of 28 kDa”.
